Results published in the supplement of paper PMC11865577.

Tests used:
Assay in all cases: pull-down binding Z-score (relative to library population); higher = stronger binding
Conditions in all cases: RNA library: Library-2
[1] = system: TO-3-N3 (biotin conjugate)
Procedure, shortened: (§1)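 Heat-folded RNA library (1 μg, Cy5 or Cy3 end label, phosphate/NaCl/KCl buffer) was captured for 60 min at 25 °C on streptavidin beads displaying 100 pmol of biotin-conjugated small molecule, then washed three times. The bound fraction, eluted in hot SDS, was hybridised to a DNA barcode microarray at 55.5 °C for 20 h. Z-scores for binding were taken against the library mean and standard deviation after beads-only subtraction and trimmed averaging of replicate barcoded probes.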

[2] = system: TO-3-N3-2 (biotin conjugate)
Procedure, shortened: as §1

[3] = system: TO-N3 (biotin conjugate)
Procedure, shortened: as §1

[4] = system: TO-N3-2 (biotin conjugate)
Procedure, shortened: as §1

Sequence	pull-down binding Z-score [1]	pull-down binding Z-score [2]	pull-down binding Z-score [3]	pull-down binding Z-score [4]
CACGUCCAACUCAGUUUGCCUGUUUUACAGGUUCGCGACGUG	0.0988	-0.0582	0.0672	0.192
AUUGGUGCAGGUAUAUGCGCUAGU	-0.974	-0.674	-1.16	-0.926
GGUGGAAUUGGACGAUUCUACAUCCAAAUGUGCACC [IAV_invivo_NP_5_Motif_3+IAV_invivo_NP_5_Motif_3]	-0.714	-0.333	-0.779	-0.454
AAAUUUACAAGAAUUU [SHAPE_invivo_SARS-CoV-2_Motif_380]	-0.131	-0.556	-0.556	-1.48
AACGGGGCGGGCCGGGGGCGGGGUAA [G4_2A2_VEGF-Pu22]	8.27	10.4	6.62	4.88
AACGGGGCGGGCCCUGGGCGGGGUAA [G4_2A2_VEGF-Pu22-mt2]	8.94	10.6	7.22	5.33
GGUGCUCCCAAGAGGGAAGCU [IAV_invivo_NP_5_Motif_18+IAV_invivo_NP_5_Motif_18]	-0.0194	-0.165	0.405	0.775
UAUAAUAUGAGAGUUAUA	-0.11	-0.355	-0.233	-0.882
AAAUAAGUACGAUACUUACCUG [U1snRNP5ss-3]	-0.109	0.279	-0.0474	0.324
AACAAAUGUGUCAAUUUCAACUUCAAUGGUUUAACAGGCACAGGUGUU	-0.698	-0.221	-0.754	-0.968
AUGAAUCUCUCAU [SHAPE_invivo_SARS-CoV-2_Motif_473]	-0.104	-0.347	-0.427	-0.958
GGUCUGCAGGACU [IAV_invivo_PA_3_Motif_27+IAV_invivo_PA_3_Motif_27]	0.0311	-0.237	-0.125	-0.231
AUCUUAGGGAAUUUGUGUUUAAGAAUAUUGAUGGUUAUUUUAAAAUAUAUUCUAAGCACACGCCUAUUAAUUUAGUGCGUGAUCUCCCUCAGGGU	-0.775	-0.113	-0.897	-0.222
CCUAAUGGAUGG [IAV_invivo_NA_6_Motif_15+IAV_invivo_NA_6_Motif_15]	-0.555	-0.746	-0.777	-0.501
GCCUGUGUAAAUGGU [IAV_invivo_NA_6_Motif_8+IAV_invivo_NA_6_Motif_8]	-0.344	-0.297	-0.471	-0.434
CGGGCUUAUGUUGCUCG	-0.429	-0.43	-0.791	-0.956
AGUCCCUGUUGCUAUUCAUGCAGAUCAACUUACUCCUACUUGGCGUGUUUAUUCUACAGGUUCUAAUGUUUUUCAAACACGUGCAGGCUGUUUAAUAGGGGCU	-0.948	-0.638	-1.03	-0.608

Sequence	pull-down binding Z-score [1]	pull-down binding Z-score [2]	pull-down binding Z-score [3]	pull-down binding Z-score [4]
ACAUCAGCUUGUGUUUUGGCUGCUGAAUGU	-0.623	-0.534	-0.774	-0.485
AAAGUGCAGUGAAAAGAACAAUCAAGGGUACACACCACUGGUUGUUACUCACAAUUUUGACUUCACUUU	-0.381	-0.0864	-0.172	0.0106
GCAAAUUAAUGC	-0.689	-0.864	-1.04	-1.25
GGUGACAACAACC [IAV_invivo_M1_M2_7_Motif_11+IAV_invivo_M1_M2_7_Motif_11]	-0.283	-0.31	-0.366	-0.457
GGUACAACAACUUACAAAUUAAAUGUUGGUGAUUAUUUUGUGCU [SHAPE_invivo_SARS-CoV-2_Motif_319]	-0.537	-0.134	-0.509	-0.524
GACUCAUUCAAGGAGGAGUU [SHAPE_invivo_SARS-CoV-2_Motif_469]	0.25	-0.149	0.111	-0.297
GGGAGCUAUAAACAGCAGUCUCCC [IAV_invivo_HA_4_Motif_12+IAV_invivo_HA_4_Motif_12]	0.403	0.213	0.537	0.468
UGUGACUGGACA [SHAPE_invivo_SARS-CoV-2_Motif_313]	0.86	-0.233	0.774	-0.14
UACUAAUAUGUUUACACCACUAAUUCAACCUAUUGGUGCUUUGGACAUAUCAGCAUCUAUAGUAGCUGGUGGUAUUGUAGCUAUCGUAGUA [SHAPE_invivo_SARS-CoV-2_Motif_188]	0.0327	0.253	0.303	0.354
CAGCAAGAACUG [DMSMaPseq_invitro_SARS-CoV-2_Motif_202]	-0.324	-0.578	-0.633	-0.724
AACGGGGCGGGCCUGGGCGGGGUAA [G4_2A2_VEGF-Pu22-del]	8.83	11	7.15	5.22
GUGAAACAUUUGUCAC [SHAPE_invivo_SARS-CoV-2_Motif_46]	0.818	0.013	0.532	-0.394
CCUCGUACAAAAUUUUCAAGAUCGAAAAGGGG [IAV_invivo_NA_6_Motif_10+IAV_invivo_NA_6_Motif_10]	-0.278	0.159	-0.362	-0.605
GUAAAUUUACUUAC [DMSMaPseq_invitro_SARS-CoV-2_Motif_170]	0.655	-0.105	0.563	-0.635
GUUGACAGGACACGAGUAACUCGUCUAUCUUCUGCAGGCUGCUUACGGUUUCGUCCGUGUUGCAGCCGAUCAUCAGC	-0.282	-0.335	0.461	1.31
GCGCUUUAGGUCUACACGGGCCGAAGCUAACGCGUUAAGCGC [3-way model-5_mrRNA]	0.146	0.0632	0.0607	0.245
CCCCGGCCCCGGCCCCGGCCCCGG [r(CCCCGG)4]	0.661	0.272	0.747	1.48
